Source: patent US9217032B2, “Methods for treating colorectal cancer” (LES LABORATOIRES SERVIER, priority 2010, dated 2015)

B1: MAb3: murine N-terminal anti-hPG monoclonal antibody, hybridoma 6B5B11C10, VH SEQ ID NO:12, VL SEQ ID NO:13 (antibody, V domains shown)
VH: EVQLQQSGTVLARPGASVKMSCKASGYIFTSYWVHWVKQRPGQGLEWIGGFYPGNSDSRYNQKFKGKATLTAVTSASTAYMDLSSLTNEDSAVYFCTRRDSPQYWGQGTTLTVSS
VL: DVLMTQTPLSLPVSLGDQASISCRSSQSIVHSNGNTYLEWYLQKPGQSPKLLIYKVSNRFSGVPDRFSGSGSGTDFTLKISRLEAEDLGVYYCFQGSHVPFTFGGGTKLEIK
B2: MAb8: murine C-terminal anti-hPG monoclonal antibody, hybridoma 1C10D3B9, VH SEQ ID NO:59, VL SEQ ID NO:63 (antibody, V domains shown)
VH: EVQLVESGGGLVKPGGSLKLSCAASGFTFTTYAMSWVRQTPEKRLEWVATISSGGTYTYYPDSVKGRFTISRDNAKNALYLQMSSLRSEDTAMYYCATQGNYSLDFWGQGTSLTVSS
VL: DIVMTQAASSNPVTLGTSASISCRSSKSLRHTKGITFLYWYLQKPGQSPQLLIYQMSNLASGVPDRFSSSGSGTDFTLRISRVEAEDLGVYYCAQNLELPLTFGAGTKLELK
B3: MAb4: murine N-terminal anti-hPG monoclonal antibody, hybridoma 20D2C3G2, VH SEQ ID NO:14, VL SEQ ID NO:15 (antibody, V domains shown)
VH: QVQLQQSGAELMKPGASVKISCKATGYTFSSSWIEWLKQRPGHGLEWIGEFLPGSGSTDYNEKFKGKATFTADTSSDTAYMLLSSLTSEDSAVYYCATDGNYDWFAYWGQGTLVTVSA
VL: DLVMTQTPLSLPVSLGDQASISCRSSQSLVHSSGVTYLHWYLQKPGQSPKLLIYKVSNRFSGVPDRFSGSGSGTDFTLKISRVEAEDLGVYFCSQSTHVPPTFGSGTKLEIK

Tests used:
[1] = system: SW620 colorectal cancer cells; assay: Initiation of new tumors after transplantation of cells from treated metastases; format: in vivo, BALBc/nude mice; details: 6,500 cells subcutaneously into thighs of two nude mice; tumor volume; FIG. 29
Procedure: (§1) Using standard techniques, immunodeficient BALBc/nude mice were given intra-splenic injections of human metastatic SW620 colorectal cancer cells. The mice were then administered the anti-hPG monoclonal antibody MAb3 or a control monoclonal antibody twice per week for a total of six weeks. For each antibody, the dose was 8 mg/kg. At the end of the treatment period tissue was dissected from metastases from both treated and control mice. Tumor cells were disaggregated by treatment of the dissected tissue with Accumax, filtered and counted. A total of 23,800 viable tumor cells were obtained from metastatic tissue from the mice treated with MAb3, and 36,400 were obtained from control mice.
(§2) For the spheroid test, for each of the treated and control cells, 2,000 cells/well were seeded into five wells of low adherence cultureware in M11 medium supplemented with bFGF and EGF. Cells were grown for seven days, and then the number of spheroids that formed in each well was counted. For the transplantation test, spheroids developing from cells isolated from treated and control metastases were pooled, disaggregated and counted. A total of 20,000 cells were obtained from spheroids derived from treated metastases, and 110,000 cells were obtained from spheroids derived from control metastases. […] Tumor volume was then calculated through time in both animals.

SW620 cells = assay: Hepatic metastases by SW620 cell xenografts in nude mice, monoclonal antibody; format: in vivo, BALBc/nude mice
Procedure: A total of 5×10^6 SW620 cells were injected into the spleen of each of 20 BALBc/nude mice at age 5 weeks old. Two minutes after injection of the cells, the spleens were surgically removed. After recovery, mice were randomly divided into two groups, each of which was subjected to one of two different treatments. Specifically, 10 mice were injected with a control antibody (anti-human IgG1Fc) diluted in PBS, and 10 mice were injected with anti-hPG monoclonal antibody MAb3, also diluted in PBS. The dose of antibodies was 8 mg/kg in a volume of 150 microliters. Injections were made intraperitoneally twice per week for six weeks. Once per week each mouse was weighed. Six weeks later, after the course of injections was finished, the mice were euthanized with carbon dioxide and the livers were removed and the number of visible metastases present was counted.

[2] = system: T84 metastatic colorectal cancer cells; assay: Growth of T84 cells in culture; format: cell-based, human; details: FIG. 7; P value 0.0370 Mann Whitney
Procedure: (§3) SW620 cells were seeded into 6-well plates, serum-starved overnight, then treated every 12 hours with PBS, 3 microgram/ml control antibody (Mouse anti-human IgG1, Calbiochem, Ref #411451) or four different anti-PG monoclonal antibodies, MAb3, MAb4, MAb2, and MAb1. The experiment was carried out in duplicate, and the technician was blinded as to the contents of the treatment solutions. Forty-eight hours after the start of the treatments the number of surviving cells in each well were counted six times and averaged.
The methods employed for this experiment were similar to those used to measure the effect of anti-progastrin monoclonal antibodies on SW620 cells, except that the anti-progastrin antibody used was anti-hPG MAb3.

[3] = system: SW620 metastatic colorectal cancer cells; assay: Growth of SW620 cells in culture, monoclonal antibodies; format: cell-based, human; details: for reduction of growth of SW620 cells compared to control antibody: MAb1-MAb4, 48 hours; for Cell numbers: SW620, 48 hours, treated every 12 hours, average cells per well minus cells seeded (T0), CT antibody-T0 158556
Procedure: as §3
In a separate experiment, SW620 cells were seeded into 6-well plates (100,000 cells per well) and treated similarly above with 5 μg/ml of anti-hPG monoclonal antibodies 5-23 (i.e., MAb5-MAb23) or 5 μg/ml control antibody. After 48 hours the number of viable cells were counted from which the number of cells at the beginning of the experiment (i.e., T0) were subtracted. The number of surviving cells in the specific antibody treated wells was then expressed as a percentage of the control.

[4] = system: T84 metastatic colorectal cancer cells; assay: Pre-treatment of T84 cells: ALDH1 positive cells (ALDEFLUOR); format: cell-based, human; details: pre-treatment 72 hours, 1 μg/ml, FIG. 24
Procedure: (§4) Cells tested were from the metastatic colorectal cancer cell lines T84 and SW620. Cells were first grown in conventional adherent cultureware for 72 hours in the presence of the anti-progastrin monoclonal antibody MAb3 (1 μg/ml), a control monoclonal antibody, the chemotherapeutic agent 5-fluorouracil (5FU 10 μM), or the solvent dimethylsulfoxide (DMSO). After treatment, cells were subjected to two assays. In the first, the percentage of cells positive for the cancer stem cell marker ALDH1 were determined using an ALDEFLUOR kit (Stemcell Technologies). In the second assay, for each treatment group, cells were plated into six wells of low adherence 96 well-plates at a density of 500 cells per well in 100 μl of serum-free medium containing bFGF and EGF and grown for 11 days without further treatment. After the end of this period, the number of spheroids per well was then counted.

[5] = system: SW620 metastatic colorectal cancer cells; assay: Pre-treatment of SW620 cells: ALDH1 positive cells (ALDEFLUOR); format: cell-based, human; details: pre-treatment 72 hours, 1 μg/ml, FIG. 25
Procedure: as §4

[6] = system: SW620 colorectal cancer cells; assay: Cells isolated from SW620 metastases of treated nude mice: cell count and spheroid growth; format: in vivo, BALBc/nude mice
Procedure: as §1, §2

[7] = system: CRC1 primary colorectal cancer cells; assay: Pre-treatment of CRC1 cells: ALDH1 expressing cells by FACS; format: cell-based, human; details: 72 hours in conventional adherent culture; FIG. 22
Procedure: (§5) CRC1 cells were obtained from a human colon carcinoma biopsy according to standard procedures. After being dissociated in Accumax (Sigma) for 45 minutes at 37° C., CRC1 cells (100,000 cells/well) were grown under conventional adherent culture conditions in serum free DMEM medium for 72 hours in the presence or absence of anti-hPG monoclonal antibodies MAb5, MAb8, MAb13 or MAb16. Experiments were carried out in blinded fashion. At the end of the treatment period, two different assays were performed on the cells. First, the percentage of cells expressing ALDH1, a marker of colorectal cancer stem cells, was determined by FACS. In the second assay, for each treatment group, 200 cells/well were plated in six wells of a low adherence 24-well plate in 500 μl of serum-free M11 medium supplemented with bFGF and EGF, and grown for 7 days without further treatment. At the end of this period, photographs were taken and the number of spheres per well was counted, and sphere surface area measured.

[8] = system: CRC1 primary colorectal cancer cells; assay: Pre-treatment of CRC1 cells: spheroids in low adherence culture; format: cell-based, human; details: 72 hours pre-treatment, then 7 days low adherence without antibody, FIG. 23, MAb5, MAb8, MAb16 p<0.05
Procedure: as §5

[9] = system: CRC1 primary colorectal cancer cells; assay: Spheroid formation by CRC1 cells in low adherence culture, monoclonal antibodies; format: cell-based, human; details: CRC1, 3 μg/ml; p<0.05 one-way ANOVA with Bonferroni; FIG. 20
Procedure: CRC1 cells were obtained from a human colon carcinoma biopsy according to standard procedures. After being dissociated in Accumax (Sigma) for 45 minutes at 37° C., cells were plated in low adherence 96 well-plates (Corning) at a density of 100 cells per well in M11 medium (DMEM/F12 with 20 ng/ml EGF, 10 ng/ml FGF, 20 μg/ml insulin, N2 supplement, 2 μg/ml cyproflaxin, 5 μg/ml gentamycin and 3 mg/ml glucose). For each treatment arm, 10 wells were used. Starting on the first day, cells were treated twice daily with one of four different anti-progastrin monoclonal antibodies, MAb5, MAb8, MAb13 or MAb16 (3 μg/ml) or the same concentration of monoclonal antibody P3X63Ag8 (ATCC, Ref TIB-9) or medium with no antibody added as controls. Thereafter, treatment was performed once daily for 8 days. Spheres were photographed daily for subsequent counting. All experiments were carried out in blinded fashion. After the conclusion of the experiment, the number of spheres from each treatment art was counted.

Molecule	ability to initiate new tumor growth after transplantation [1]	mean weight of liver metastases (SW620 cells; 8 mg/kg i.p. twice per week, six weeks, control mice 167 mg, not statistically significant) [mg]	decrease of mean number of metastases versus control antibody (SW620 cells; 8 mg/kg i.p. twice per week, six weeks, p=0.0372) [%]	mean number of metastases (SW620 cells; 8 mg/kg intraperitoneally twice per week for six weeks, control antibody 7.3)	reduction of growth of T84 cells compared to control antibody [2]	reduction of growth of SW620 cells compared to control antibody [3]	Cell numbers [3]	number of ALDH1 positive cells compared to control antibody [4]	number of ALDH1 positive cells compared to control antibody [5]	viable tumor cells obtained from metastatic tissue ([6]; 8 mg/kg twice per week for six weeks, control mice 36,400)	growth as spheroids of cells isolated from in vivo metastases ([6]; mice treated 8 mg/kg twice per week six weeks, 2,000 cells/well, seven days, FIG. 28)	number of CRC1 cells expressing ALDH1 compared to control [7]	number of spheroids formed after pre-treatment compared to control [8]	number of spheroids formed compared to non-specific antibody and medium alone [9]
B1	reduced	96	41	4.3	effective to reduce the growth of T84 metastatic colorectal cancer cells	more effective than the others	50056	reduced	reduced	23,800	reduced	–	–	–
B2	–	–	–	–	–	–	–	–	–	–	–	reduce the number CRC1 primary colorectal cancer cells expressing ALDH1	effective to reduce the number of spheroids	effective to reduce the number spheroids
B3	–	–	–	–	–	more effective than the others	52984	–	–	–	–	–	–	–
